Measured values taken from US20150299277A1, “AGENT FOR TREATING OR PREVENTING SYSTEMIC INFLAMMATORY RESPONSE SYNDROME” (THE UNIVERSITY OF TOKYO, priority 2012, published 2015).
“Also recorded” adds a separate entry of the source.

What was measured:
histone H1 = target: T1, histone H1 (Homo sapiens, UniProt P07305); experiment: ELISA binding assay; conditions: immobilized recombinant histone, absorbance at 450 nm
T1 construct: purchased NEB
Method: (§1) Recombinant human histone (NEB) was adjusted to a concentration of 1 μg/mL in TBS, added to a 96 well ELISA plate, and immobilized at 4° C. overnight. The solution was discarded, a blocking buffer (TBS, 0.1% Triton-X100, 1% BSA) was added, and the plate was incubated at room temperature for 2 hr. The plate was washed four times with a wash buffer (TBS, 0.1% Triton-X100), recombinant PTX3 diluted to various concentrations with the blocking buffer was added to each well, and reacted at room temperature for 1 hr. After washing four times with the wash buffer, HRP-labeled antibody diluted with the blocking buffer was added, and reacted at room temperature for 1 hr. After washing four times with the wash buffer, TMB solution was added to carry out a color development reaction for 30 min, and the absorbance at 450 nm was measured. Assay was performed using all the buffers containing 4 mM CaCl2 or 4 mM EDTA.
(§2) The binding level between immobilized each recombinant histone and tag-free recombinant human PTX3 (rhPTX3) was measured by binding assay (ELISA). For the detection, HRP-labeled anti-PTX3 monoclonal antibody (PPZ1228) was used. ELISA was performed with duplicate wells for each point, and means and standard deviations were calculated from three independent experiments.
as §2, with “a tagged” for “tag-free recombinant”, “fragment” for “(rhPTX3)”, “For” for “For the”, “anti-His (6×His)” for “anti-PTX3 monoclonal”, “antibody” for “antibody (PPZ1228)”

histone H3 = target: T2, histone H3 (Homo sapiens, UniProt P68431); experiment: ELISA binding assay; conditions: immobilized recombinant histone, absorbance at 450 nm
T2 construct: purchased NEB
Method: as §1, §2
as §2, with “a tagged” for “tag-free recombinant”, “fragment” for “(rhPTX3)”, “For” for “For the”, “anti-His (6×His)” for “anti-PTX3 monoclonal”, “antibody” for “antibody (PPZ1228)”

each histone = experiment: ELISA binding assay; parameters: species or system human; conditions: buffers containing 4 mM CaCl2 or 4 mM EDTA
Method: as §1, with “Assay was performed using all the buffers containing 4 mM CaCl2 or 4 mM EDTA.” left out
The binding level between immobilized each recombinant histone and tag-free recombinant human PTX3 (rhPTX3) was measured by binding assay (ELISA). […] ELISA was performed with duplicate wells for each point, and means and standard deviations were calculated from three independent experiments.
The binding level between immobilized each recombinant histone and a tagged human PTX3 fragment was measured by binding assay (ELISA). […] ELISA was performed with duplicate wells for each point, and means and standard deviations were calculated from three independent experiments.

Calf Thymus Histones = experiment: Aggregation with histone, absorbance at 310 nm; format: binding; conditions: mixture with Calf Thymus Histones
Method: The lower left figure and the lower right figure show the measurement results of absorbance at 310 nm of a mixture of a wild-type or oligomer formation capacity-deficient mutant of PTX3 N-terminal domain having each concentration and 0.1 mg/mL Calf Thymus Histones at 1:1 vol.
The aggregation activity of PTX3 and other pentraxins to histone was evaluated. Calf Thymus Histones (50 μg/mL) were mixed with a PTX3 fragment or the other pentraxin at each concentration, and the absorbance at the wavelength of 310 nm was measured. Before mixing, samples were dialyzed against 4 mM CaCl2-containing TBS.

each histone variant = experiment: Aggregation of each histone variant and PTX3 fragment, absorbance at 310 nm; format: binding; conditions: histone variant 50 μg/mL, PTX3 fragment 30 μg/mL
Method: Each histone variant (50 μg/mL) and each PTX3 fragment (30 μg/mL) were mixed, and the absorbance at the wavelength of 310 nm was measured. Before mixing, samples were dialyzed against 4 mM CaCl2-containing TBS.

[1] = tested on: Calf Thymus Histones on HUVEC; experiment: Cytotoxic assay: suppression of histone cytotoxicity on HUVEC; format: cell-based, human; conditions: 100 μg/mL Calf Thymus Histones, 40 μg/mL protein, 1 hr, PI staining, FACS
Method: After culturing for 1 hr in a medium concurrently containing 100 μg/mL Calf Thymus Histones and APC (200 nM), PTX3 (40 μg/mL), CRP (40 μg/mL) or SAP (40 μg/mL), the level of toxic activity was measured by FACS.
Normal human umbilical vein endothelial cells (HUVECs) were cultured in EGM2 medium (Clonetics). The cells after culture were washed with PBS, added with Opti-MEM medium containing an product of incubation of activated protein C (APC), PTX3, C reactive protein (CRP) or Serum amyloid P component (SAP) with histone for 1 hr, and the cells were further cultured for 1 hr. Propidium iodide (PI) was added to the medium after culture at a final concentration of 10 μg/mL, and the cells were stained for 10 min. The cells were washed with PBS, detached and analyzed by flow cytometry.
The histone cytotoxicity on HUVEC was evaluated by propidium iodide (PI) staining.
Lastly, capacity of suppressing the cytotoxic activity of histone was confirmed. Since this experiment requires a certain amount of protein and an endotoxin-elimination as treatment, a protein was expressed and purified at a 500 mL culture scale, and subjected to an endotoxin-elimination treatment (FIG. 18). In the case of PTX3 N-terminal domain, about 10 mg was obtained at a 500 mL culture scale, and a loss by the endotoxin-elimination treatment was scarcely observed. […] A capacity of fragment proteins obtained at a 500 mL scale on HUVEC to suppress histone cytotoxicity was studied. […] In consideration of the experiments relating to the binding and aggregation, all fragments were considered to possibly have a certain level of suppressive capacity.

fragment H3-11 on HUVEC = experiment: Suppression of cytotoxic activity of histone fragment on HUVEC; format: cell-based, human; conditions: fragment 250 μg/mL; full-length PTX3 at 80 μg/mL; HUVEC 1 hr
Method: (§3) Then, a suppressive effect of PTX3 on the cytotoxic activity of fragments […], H3-8, H3-11 and H4-9 was evaluated.
(§4) In the same manner as in FIGS. 7B-D, a suppressive effect of the N-terminal domain of PTX3 on the cytotoxic activity of histone H3 and H4 fragments was evaluated.

fragment H3-6 on HUVEC = experiment: as above; format: cell-based, human; conditions: fragment 250 μg/mL; full-length PTX3 at 80 μg/mL; HUVEC 1 hr
Method: as §3, §4

fragment H3-8 on HUVEC = experiment: as above; format: cell-based, human; conditions: fragment 250 μg/mL; full-length PTX3 at 80 μg/mL; HUVEC 1 hr
Method: as §3, §4

fragment H4-9 on HUVEC = experiment: as above; format: cell-based, human; conditions: fragment 250 μg/mL; full-length PTX3 at 80 μg/mL; HUVEC 1 hr
Method: as §3, §4

histone H4 = histone H4 (Homo sapiens, UniProt P62805); experiment: ELISA binding assay; parameters: purchased NEB; conditions: immobilized recombinant histone, absorbance at 450 nm
Method: as §1, §2
The binding level between immobilized each recombinant histone and a tagged human PTX3 fragment was measured by binding assay (ELISA). For detection, HRP-labeled anti-His (6×His) antibody was used. ELISA was performed with duplicate wells for each point, and means and standard deviations were calculated from three independent experiments.

T1 sequence (P07305 whole entry): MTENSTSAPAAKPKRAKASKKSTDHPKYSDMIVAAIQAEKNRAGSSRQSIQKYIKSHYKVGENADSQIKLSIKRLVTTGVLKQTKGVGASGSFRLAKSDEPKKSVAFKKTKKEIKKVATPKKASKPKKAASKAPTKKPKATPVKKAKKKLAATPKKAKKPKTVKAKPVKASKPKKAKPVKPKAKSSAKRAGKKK

Substance	binding to histone H1 (binding assay) (histone H1)	binding to histone H1 (binding assay) (histone H1; listed as N-terminal domain)	binding to histone H3 (binding assay) (histone H3)	binding to histone H3 (binding assay) (histone H3; listed as N-terminal domain)	influence of calcium ion on binding to each histone (each histone)	aggregation with Calf Thymus Histones, absorbance at 310 nm (Calf Thymus Histones)	aggregation with Calf Thymus Histones, absorbance at 310 nm (Calf Thymus Histones; listed as N-terminal domain)	aggregation with each histone variant, absorbance at 310 nm (each histone variant)	suppression of toxic activity of Calf Thymus Histones on HUVEC [1]	suppressive effect on cytotoxic activity of fragment H3-11 (fragment H3-11 on HUVEC)	suppressive effect on cytotoxic activity of fragment H3-6 (fragment H3-6 on HUVEC)	suppressive effect on cytotoxic activity of fragment H3-8 (fragment H3-8 on HUVEC)	suppressive effect on cytotoxic activity of fragment H4-9 (fragment H4-9 on HUVEC)	binding to histone H4 (binding assay) (histone H4)	binding to histone H4 (binding assay) (histone H4; listed as N-terminal domain)	suppression of toxic activity of Calf Thymus Histones on HUVEC ([1]; listed as PTX3)
N-terminal domain of PTX3: N-terminal domain human PTX3 (18-178 amino acids, SEQ ID NO: 3), tagged, expressed in CHO cells or Escherichia coli	equivalent to that of the full-length PTX3	strong bindability	equivalent to that of the full-length PTX3	strong bindability	stronger binding was found in the presence of calcium ion	showed an aggregation activity with histone	an aggregation reaction	aggregated	suppress toxic activity of histone on HUVEC; also recorded: suppressed	neutralized	neutralized	neutralized	neutralized	equivalent to that of the full-length PTX3	strong bindability	
full-length PTX3: full-length human pentraxin 3 (1-381 amino acids, SEQ ID NO: 2), used tag-free or Myc- and His-tagged	strong binding affinity		strong binding affinity		stronger binding was found in the presence of calcium ion	showed an aggregation activity with histone		aggregated	suppress toxic activity of histone on HUVEC	neutralized	neutralized	neutralized	neutralized	strong binding affinity		suppresses cytotoxic activity of extracellular histone on HUVEC to the same level as APC
